Consider one protein from patent publication US20120034671A1 (RESEARCH FOUNDATION OF THE CITY UNIVERSITY OF NEW YORK, published 2012).

This series concerns the molecule itself. Nature of the series: self-association (homodimerization), observed with NMR (FIG. 3A-3C).

B1: HP-7 polypeptide (SEQ ID NO: 7) (peptide)
chain: GEIWKQHEDALQKFEEALNQFEDLKQLGGSGCGSGGEIWKQHEDALQKFEEALNQFEDLKQL
notes: also called free HP-7
With B1, the binding result is on record as “binds”.
